Assay results as given in patent US20230322924A1 (Janssen / Centocor, published 2023).
Numbering of substitutions follows the chain as printed. Numbers in names are those of the source.

B1: C33B107 (antibody, IgG1, V domains shown)
VH: EVQLLESGGGLVQPGGSLGLSCAASGFTFSGYAMSWVRQAPGKGLNWVSAIDYSGNDTYYADSVKGRFTISRDNSKNTLYLQMNSLRAEDTAVYYCAKESQLLHGLFEHWGQGILVTVSS
VL: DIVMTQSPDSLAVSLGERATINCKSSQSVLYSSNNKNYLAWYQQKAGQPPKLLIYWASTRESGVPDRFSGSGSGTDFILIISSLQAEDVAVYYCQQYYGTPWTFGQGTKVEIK
notes: huIgG1 F405L; also called C33F112; C33H68/C33L17
B2: C33B54 (antibody, IgG1, V domains shown)
VH: QVQLQQSGPGLVKPSQTLSLTCAISGDSVSSNSAAWNWIRQSPSRGLEWLGRTYYRSKWYNDYAVSVRSRITINPDTSKNQFSLQLNSVTPEDTAVYHCARETMFRGLMDYWGQGTLVTVSS
VL: SYVLTQPPSVSVAPGQTARITCGGSNIGSKSVHWYQQKPGQAPVMVVYDDSDRPSGIPERFSGSNSGNTATLTISRVEAGDEADYYCQVWDSSSDVVFGGGTKLTVL
notes: huIgG1 F405L; also called C33F59; C33H44/C33L10
B3: C33B89 (antibody, IgG1, V domains shown)
VH: B2 VH with V65L, R68Q, H98Y, T103V, M104A, F105V, R106A, G107A, L108S, M109F
VL: SYVLTQPPSVSVAPGQTARITCGGNNIGSKSVHWSQQKPGQAPVLVVYDDSDRPSGIPERFSGSNSGNTATLTISRVEAGDEADYYCQVWDSNSDHVVFGGGTKLTVL
notes: huIgG1 F405L; also called C33F94; C33H90/C33L51
B4: C33B96 (antibody, IgG1, V domains shown)
VH: EVQLVESGGGLVQPGGSLRLSCAASGFTFSSYWMTWVRPAPGKGLEWVANIKRDGGEKYYVDSVKGRFTISRDNAANSLYLQMNSLRVEDTAVYYCARPFYDHFDYWGQGTLVTVSS
VL: SYVLTQPPSVAVAPGQTARITCGGSNIGKISVHWYQQKAGQAPVLVVHDDRARPSGIPERLSGSNSGTTATLTISRVEVGDEADYYCQVWNSSSVHPVFGGGTKLTVL
notes: huIgG1 F405L; also called C33F101; C33H99/C33L37
B5: C33B88 (antibody, IgG1, V domains shown)
VH: QVQLVQSGSELKKPGASVKVSCKASGYTLTRSAMNWVRQAPGQGLEWMGWINTNTGNPTYAQGFTGRFVFSLDTSVNTAYLLISSLKTEDTAVYYCASDILPGYHEDYWGQGTLVTVSS
VL: QSALTQPASVSGSPGQSITISCTGINSDVGSYDLVSWYQQHPGKAPKLLIYDGSERPSGVFGRFSGSKSDNTTSLTISGLQAEDEAAYYCCSYEVTTTYVVFGGGTKLTVL
notes: huIgG1 F405L; also called C33F93; C33H88/C33L61
B6: C33B909 (antibody, V domains shown)
VH: EVQLVESGGGLVQPGRSLRLSCVASGFTFDDYAIHWVRQAPGKGLEWVSGLSWNGGNIGYADSVKGRFTISRDNAKNSLYLQMNSLKTEDTAFYYCTKDTPYGDYFDYWGQGTLVTVSS
VL: DIQMTQSPSSVWASVGDRVTITCRASQGISSWLAWYQQQPGKAPNLLIYRSSSLQSGVPSRFSGSGSGTDFTLTISSLQPEDFATYYCQQDNSFPYTFGQGTKLEIK
notes: OMNIMouse-derived anti-CD33 mAb; same V regions as C33B901; The OMNIMouse mAbs were cloned into both IgG1 and IgG4 PAA; also called C33H249/C33L115
B7: C33B910 (antibody, V domains shown)
VH: B6 VH with V23A, A24G, M83L, T97A, T100S
VL: B6 VL with V11E, Q39K, N45K, R50G, S51A, L54W
notes: OMNIMouse-derived anti-CD33 mAb; same V regions as C33B902; also called C33H250/C33L116

target: T1, Cyno CD33 ECD-HSA (cynomolgus monkey); test: ProteOn SPR, mAb captured by anti-human Fc, 1:1 Langmuir fit
T1 construct: Cyno CD33 extracellular domain fused to monomeric human serum albumin and a six-histidine tag; also called C33W1
Experimental: (§1) The panel of mAbs was then further characterized for full affinity analysis as well as epitope binning. The binding of anti-CD33 mAbs to recombinant human CD33 ECD-HSA (C33W2) and cyno CD33 ECD-HSA (C33W1) was measured by ProteOn SPR (Bio-Rad). […] Different mAbs were captured on the anti-human Fc IgG surface at 0.25 or 0.5 μg/ml (160-300 RU) in vertical ligand orientation, with the 6th ligand channel as no ligand surface control. Human and cyno CD33-HSA proteins at 0.3 μM concentration in 3-fold dilution series of 5 concentrations flew in as analyte to bind to captured mAbs in the horizontal orientation. A buffer sample was also injected in the 6th channel to monitor the dissociation of captured mAb and baseline stability. […] The raw biding data were processed by double referencing after subtracting the response data from: 1) the inter-spot to correct for the non-specific interactions between the Ag and the empty chip surface; 2) the buffer channel to correct for baseline drifting due to the dissociation of captured mAb surface over time. The processed data at all antigen concentrations for each mAb were globally fit to a 1:1 simple Langmuir binding model to extract estimates of the kinetic (kₒₙ, koff) and affinity (Kd) constants.

| Binder | Kd [nM] | koff [s⁻¹] | kon [M⁻¹ s⁻¹] |
| --- | --- | --- | --- |
| B1 | 0.212 | 7.01e-05 | 331000 |
| B2 | 0.484 | 0.000637 | 1.32e+06 |
| B3 | 0.76 | 0.000201 | 265000 |

target: Human CD33 ECD-HSA (human); test: as above
Sequence (chain, as listed by the source): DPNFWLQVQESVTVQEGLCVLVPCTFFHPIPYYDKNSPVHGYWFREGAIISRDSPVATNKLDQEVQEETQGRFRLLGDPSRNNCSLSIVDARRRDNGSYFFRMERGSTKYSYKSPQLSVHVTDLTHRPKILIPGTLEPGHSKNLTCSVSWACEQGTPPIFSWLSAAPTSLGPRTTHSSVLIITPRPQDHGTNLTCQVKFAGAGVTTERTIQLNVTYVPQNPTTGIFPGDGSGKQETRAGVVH
Experimental: as §1

| Binder | Kd [nM] | koff [s⁻¹] | kon [M⁻¹ s⁻¹] |
| --- | --- | --- | --- |
| B4 | 1.92 | 0.000436 | 226000 |

target: T1, Cyno CD33 ECD-HSA; test: SPRi off-rate screen (IBIS MX96), mAb captured by anti-human Fc; column head prints Cyno CD33 binding KD
Experimental: (§2) To begin assessing the biophysical binding properties of the purified mAbs an off-rate screen was performed. 76 OMNIRat anti-CD33 mAbs were tested for binding to recombinant human CD33 ECD-HSA (C33W2) and cyno CD33 ECD-HSA (C33W1) proteins (Janssen production) and the off-rate was measured by IBIS MX96 SPRi array platform (Carterra; Newton, PA). […] The sensor chip was transferred to the Continuous Flow Microspotter (CFM) unit to capture each anti-CD33 mAb at 10 μg/ml for 10 minutes. Binding was measured on IBIS SPRi by single cycle kinetics without regeneration. […] The raw binding data (.trix file format) were referenced and aligned using SprintX software (Wasatch, Ver 1.9.3.2), then exported (.ibmx file format) to Scrubber software (Ver. 2.0) for 1:1 binding kinetic analyses (Wasatch, version 2.0.0.33) to extract the koff results.

| Binder | koff [s⁻¹] |
| --- | --- |
| B5 | 0.000389 |
| B1 | 0.000135 |
| B2 | 0.000135 |
| B3 | 4.65e-05 |
| B4 | 0.000819 |

target: T2, Cyno CD33 full length, expressed on HEK293F cells (cynomolgus monkey); test: flow cytometry, HEK293F cells expressing cyno CD33
T2 construct: HEK293F cells transduced with lentivirus containing full length cyno CD33 (Genbank XP_005590138.1); also called cyCD33
Experimental: (§3) OMNIRat antibodies identified via immunization, v-region cloned and subsequently expressed and purified were characterized further for binding to CD33 expressing cells and binding to recombinant antigens. The purified antibodies were assessed for binding to stably transfected HEK293F cells expressing human CD33 or cyno CD33 (generation described above) along with the parental HEK293F as negative control. Cells were harvested from tissue culture flasks using non-enzymatic dissociation buffer (Thermo Scientific). The flasks were rinsed twice with PBS and dissociation buffer was added to the flask, and the flask was incubated for 10 minutes at 37° C. until the cells became non-adherent. The cells were centrifuged at 300 g for 5 minutes and resuspended at 1.0×10⁶ cells/ml in staining buffer (Becton Dickinson; Franklin Lakes, NJ). 50,000 cells/well of each cell type was plated in 50 μl of staining buffer in round bottom plates (Becton Dickinson). […] 100 μl staining buffer was added to all wells of each plate, the plates were spun at 300 g for 5 min, the buffer was removed, 200 μl staining buffer was added to all wells of each plate, the plates were spun at 300 g for 5 min, and the buffer was removed. 50 μl of 2 μg/ml of Goat-anti-human Fc AF647 secondary antibody (Jackson Immunoresearch; West Grove, PA) was added to all wells of the plates, and the plates were incubated for 30 min at 4° C. 100 μl staining buffer was added to all wells of the plates, the plates were spun at 300 g for 5 min, and the buffer was removed. 200 μl running buffer (running buffer is Staining buffer, 1 mM EDTA, 0.1% Pluronic Acid) was added to all wells of the plates, the plates were spun at 300 g for 5 min, and the buffer was removed. 30 μl running buffer containing Sytox Green live/dead dye (ThermoFisher) was added to all wells with cells and the plates were read on an iQue IntelliCyt flow cytometer. Cells were gated on forward vs. side scatter to eliminate debris, then on singlets and then on live cells which excluded the Sytox stain. Antibody binding was assessed by the mean fluorescence intensity in the AF647 channel.

| Binder | MFI at 0 nM mAb (background) [MFI] | MFI at 0.6 nM mAb [MFI] | MFI at 6 nM mAb [MFI] | MFI at 60 nM mAb [MFI] |
| --- | --- | --- | --- | --- |
| B5 | 90.1 | 43900 | 43900 | 50400 |
| B1 | 55.1 | 36800 | 47800 | 50300 |
| B2 | 28800 | 38100 | 43000 | 50500 |
| B3 | 113 | 23300 | 34200 | 47300 |
| B4 | 86.3 | 11600 | 20100 | 37300 |

target: T3, Human CD33 full length (human, UniProt P20138 18-364); test: flow cytometry on HEK293F cells expressing human CD33
T3 construct: also called huCD33
T3 sequence (P20138 18-364 limits assumed): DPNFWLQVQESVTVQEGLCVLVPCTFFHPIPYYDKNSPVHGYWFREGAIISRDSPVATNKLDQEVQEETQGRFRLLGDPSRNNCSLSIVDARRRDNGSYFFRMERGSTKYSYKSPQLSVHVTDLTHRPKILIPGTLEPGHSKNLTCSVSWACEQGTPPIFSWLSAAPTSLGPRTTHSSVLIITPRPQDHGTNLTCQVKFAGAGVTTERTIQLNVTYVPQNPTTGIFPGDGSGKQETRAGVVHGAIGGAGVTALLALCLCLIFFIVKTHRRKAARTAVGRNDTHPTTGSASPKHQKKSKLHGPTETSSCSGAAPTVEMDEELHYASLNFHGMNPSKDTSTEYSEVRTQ
Experimental: as §3, with “The” for “OMNIRat antibodies identified via immunization, v-region cloned and subsequently expressed and purified were characterized further for binding to CD33 expressing cells and binding to recombinant antigens. The”
(§4) The OmniMouse panel (8 mAbs total) was generated separately and characterized further for binding to cells.

| Binder | MFI at 0 nM (background) [MFI] | MFI at 0.6 nM [MFI] | MFI at 6 nM [MFI] | MFI at 60 nM [MFI] |
| --- | --- | --- | --- | --- |
| B6 | 191 | 154 | 170 | 176 |
| B7 | 155 | 151 | 183 | 214 |

target: T4, Cyno CD33 full length (cynomolgus monkey); test: flow cytometry on HEK293F cells expressing cyno CD33
T4 construct: also called cyCD33
Experimental: as §3, with “The” for “OMNIRat antibodies identified via immunization, v-region cloned and subsequently expressed and purified were characterized further for binding to CD33 expressing cells and binding to recombinant antigens. The”
as §4

| Binder | MFI at 0 nM (background) [MFI] | MFI at 0.6 nM [MFI] | MFI at 6 nM [MFI] | MFI at 60 nM [MFI] |
| --- | --- | --- | --- | --- |
| B6 | 124 | 116 | 135 | 180 |
| B7 | 176 | 117 | 135 | 202 |

target: Human CD33 ECD-HSA (human); test: SPRi off-rate screen (IBIS MX96), mAb captured by anti-human Fc; column head prints KD
Experimental: as §2

| Binder | koff [s⁻¹] |
| --- | --- |
| B5 | 0.000825 |
| B1 | 0.00444 |
| B2 | 0.0248 |
| B3 | 0.00811 |
| B4 | 0.000228 |

target: T5, Human CD33 full length, expressed on HEK293F cells (human, UniProt P20138 18-364); test: flow cytometry, HEK293F cells expressing human CD33
T5 construct: HEK293F cells transduced with lentivirus containing full length human CD33; also called huCD33
T5 sequence (P20138 18-364 limits assumed): as above
Experimental: as §3

| Binder | MFI at 0 nM mAb (background) [MFI] | MFI at 0.6 nM mAb [MFI] | MFI at 6 nM mAb [MFI] | MFI at 60 nM mAb [MFI] |
| --- | --- | --- | --- | --- |
| B5 | 94.8 | 274000 | 481000 | 393000 |
| B1 | 86.5 | 161000 | 340000 | 375000 |
| B2 | 61.3 | 3770 | 27500 | 148000 |
| B4 | 55.2 | 188000 | 476000 | 476000 |
